Molecular target: complement factor C3b (UniProt P01024 23-667; P01024 749-1663)
Assay: SPR; steady-state fit

Sequence of complement factor C3b (P01024 23-667, chain 1 of 2): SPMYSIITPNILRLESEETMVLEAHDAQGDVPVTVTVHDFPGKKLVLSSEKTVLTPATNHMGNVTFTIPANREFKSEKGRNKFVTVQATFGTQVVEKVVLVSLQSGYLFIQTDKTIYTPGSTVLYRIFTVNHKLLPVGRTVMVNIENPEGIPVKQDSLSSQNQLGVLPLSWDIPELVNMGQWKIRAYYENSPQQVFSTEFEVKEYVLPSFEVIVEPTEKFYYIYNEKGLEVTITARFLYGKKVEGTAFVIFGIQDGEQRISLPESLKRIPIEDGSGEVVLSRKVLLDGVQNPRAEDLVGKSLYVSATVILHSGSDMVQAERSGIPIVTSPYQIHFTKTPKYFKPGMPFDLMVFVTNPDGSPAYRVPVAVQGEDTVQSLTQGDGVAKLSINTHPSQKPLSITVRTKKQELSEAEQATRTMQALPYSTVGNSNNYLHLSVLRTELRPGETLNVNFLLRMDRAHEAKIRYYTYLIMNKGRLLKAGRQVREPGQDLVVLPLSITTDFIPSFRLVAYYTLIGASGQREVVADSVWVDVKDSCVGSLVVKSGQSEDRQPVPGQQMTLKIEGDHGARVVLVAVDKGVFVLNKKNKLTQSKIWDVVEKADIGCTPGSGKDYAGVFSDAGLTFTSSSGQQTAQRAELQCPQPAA
Sequence of complement factor C3b (P01024 749-1663, chain 2 of 2): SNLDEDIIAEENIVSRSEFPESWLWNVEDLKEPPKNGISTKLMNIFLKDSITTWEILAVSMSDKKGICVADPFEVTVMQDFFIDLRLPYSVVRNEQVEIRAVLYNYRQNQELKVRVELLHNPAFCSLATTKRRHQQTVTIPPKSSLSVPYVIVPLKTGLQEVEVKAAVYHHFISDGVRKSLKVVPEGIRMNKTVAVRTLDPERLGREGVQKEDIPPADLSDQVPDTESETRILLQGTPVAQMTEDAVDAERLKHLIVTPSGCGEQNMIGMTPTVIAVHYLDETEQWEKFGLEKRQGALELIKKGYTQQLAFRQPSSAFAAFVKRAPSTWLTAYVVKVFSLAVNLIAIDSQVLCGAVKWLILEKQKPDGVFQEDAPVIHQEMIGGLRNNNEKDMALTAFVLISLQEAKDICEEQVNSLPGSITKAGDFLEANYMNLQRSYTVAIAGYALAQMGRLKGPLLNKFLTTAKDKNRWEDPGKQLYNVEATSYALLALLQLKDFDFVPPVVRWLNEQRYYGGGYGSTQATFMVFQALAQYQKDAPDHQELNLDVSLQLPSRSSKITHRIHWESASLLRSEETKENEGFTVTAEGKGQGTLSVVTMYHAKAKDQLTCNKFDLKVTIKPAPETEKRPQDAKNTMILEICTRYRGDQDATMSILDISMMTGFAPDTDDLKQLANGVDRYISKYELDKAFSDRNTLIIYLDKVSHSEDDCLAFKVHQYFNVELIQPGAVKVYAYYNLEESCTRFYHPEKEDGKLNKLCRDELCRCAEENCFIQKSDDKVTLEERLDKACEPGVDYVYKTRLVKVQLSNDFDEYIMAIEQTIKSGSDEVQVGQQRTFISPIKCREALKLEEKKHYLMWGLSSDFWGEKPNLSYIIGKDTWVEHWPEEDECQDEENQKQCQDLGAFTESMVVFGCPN

B1: miniFH-Fc (Fc fusion)
chain: EDCNELPPRRNTEILTGSWSDQTYPEGTQAIYKCRPGYRSLGNIIMVCRKGEWVALNPLRKCQKRPCGHPGDTPFGTFTLTGGNVFEYGVKAVYTCNEGYQLLGEINYRECDTDGWTNDIPICEVVKCLPVTAPENGKIVSSAMEPDREYHFGQAVRFVCNSGYKIEGDEEMHCSDDGFWSKEKPKCVEISCKSPDVINGSPISQKIIYKENERFQYKCNMGYEYSERGDAVCTESGWRPLPSCEEAGGGGGGGGGGGGGKCGPPPPIDNGDITSFPLSVYAPASSVEYQCQNLYQLEGNKRITCRNGQWSEPPKCLHPCVISREIMENYNIALRWTAKQKLYSRTGESVEFVCKRGYRLSSRSHTLRTTCWDGKLEYPTCAGPGGGGGPGCPAPELLGGPSVFLFPPKPKDTLMISRTPEVTCVVVDVSHEDPEVKFNWYVDGVEVHNAKTKPREEQYQSTYRVVSVLTVLHQDWLNGKEYKCKVSNKALPAPIEKTISKAKGQPREPQVYTLPPSREEMTKNQVSLTCLVKGFYPSDIAVEWESNGQPENNYKTTPPVLDSDGSFFLYSKLTVDKSRWQQGNVFSCSVMHEALHNHYTQKSLSLSPGGGGGGG
Kd: 300 nM

B2: miniFH (designed binder)
chain: EDCNELPPRRNTEILTGSWSDQTYPEGTQAIYKCRPGYRSLGNIIMVCRKGEWVALNPLRKCQKRPCGHPGDTPFGTFTLTGGNVFEYGVKAVYTCNEGYQLLGEINYRECDTDGWTNDIPICEVVKCLPVTAPENGKIVSSAMEPDREYHFGQAVRFVCNSGYKIEGDEEMHCSDDGFWSKEKPKCVEISCKSPDVINGSPISQKIIYKENERFQYKCNMGYEYSERGDAVCTESGWRPLPSCEEAGGGGGGGGGGGGGKCGPPPPIDNGDITSFPLSVYAPASSVEYQCQNLYQLEGNKRITCRNGQWSEPPKCLHPCVISREIMENYNIALRWTAKQKLYSRTGESVEFVCKRGYRLSSRSHTLRTTCWDGKLEYPTCAKR
Kd: 588 nM
